Assay results from patent US20040072742A1 (Takeda / Millennium, published 2004).

T1: MD36NT (MD36 from the N terminus to the proline-rich domain, SEQ ID NO:33) fused to yeast GAL4 transcription … (yeast; human, UniProt Q9Y613 1-640, limits assumed)
T1 construct: also called pACT-MD36NT
T1 sequence: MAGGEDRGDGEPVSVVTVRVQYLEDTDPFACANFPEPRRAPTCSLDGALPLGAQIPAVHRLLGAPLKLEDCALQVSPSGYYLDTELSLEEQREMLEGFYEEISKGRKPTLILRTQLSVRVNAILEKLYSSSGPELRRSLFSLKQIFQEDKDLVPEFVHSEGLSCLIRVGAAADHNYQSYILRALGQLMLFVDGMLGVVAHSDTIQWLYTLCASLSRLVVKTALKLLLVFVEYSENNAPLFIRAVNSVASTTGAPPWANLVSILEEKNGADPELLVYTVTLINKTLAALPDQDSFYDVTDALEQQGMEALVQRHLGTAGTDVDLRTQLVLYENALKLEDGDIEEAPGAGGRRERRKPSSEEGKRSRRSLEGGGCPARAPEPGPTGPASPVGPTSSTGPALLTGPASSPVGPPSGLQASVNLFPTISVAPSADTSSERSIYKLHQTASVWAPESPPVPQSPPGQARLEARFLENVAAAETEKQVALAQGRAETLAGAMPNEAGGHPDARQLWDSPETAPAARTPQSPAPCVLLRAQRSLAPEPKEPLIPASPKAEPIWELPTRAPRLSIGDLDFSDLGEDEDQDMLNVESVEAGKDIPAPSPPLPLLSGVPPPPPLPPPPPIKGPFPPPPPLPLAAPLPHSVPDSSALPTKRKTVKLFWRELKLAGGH

T2: full-length MD36 (SEQ ID NO:1) fused to yeast GAL4 transcription activated domain protein (yeast; human, UniProt Q9Y613 1-1164, limits assumed)
T2 construct: also called pACT-MD36; IRAP-BP protein
T2 sequence: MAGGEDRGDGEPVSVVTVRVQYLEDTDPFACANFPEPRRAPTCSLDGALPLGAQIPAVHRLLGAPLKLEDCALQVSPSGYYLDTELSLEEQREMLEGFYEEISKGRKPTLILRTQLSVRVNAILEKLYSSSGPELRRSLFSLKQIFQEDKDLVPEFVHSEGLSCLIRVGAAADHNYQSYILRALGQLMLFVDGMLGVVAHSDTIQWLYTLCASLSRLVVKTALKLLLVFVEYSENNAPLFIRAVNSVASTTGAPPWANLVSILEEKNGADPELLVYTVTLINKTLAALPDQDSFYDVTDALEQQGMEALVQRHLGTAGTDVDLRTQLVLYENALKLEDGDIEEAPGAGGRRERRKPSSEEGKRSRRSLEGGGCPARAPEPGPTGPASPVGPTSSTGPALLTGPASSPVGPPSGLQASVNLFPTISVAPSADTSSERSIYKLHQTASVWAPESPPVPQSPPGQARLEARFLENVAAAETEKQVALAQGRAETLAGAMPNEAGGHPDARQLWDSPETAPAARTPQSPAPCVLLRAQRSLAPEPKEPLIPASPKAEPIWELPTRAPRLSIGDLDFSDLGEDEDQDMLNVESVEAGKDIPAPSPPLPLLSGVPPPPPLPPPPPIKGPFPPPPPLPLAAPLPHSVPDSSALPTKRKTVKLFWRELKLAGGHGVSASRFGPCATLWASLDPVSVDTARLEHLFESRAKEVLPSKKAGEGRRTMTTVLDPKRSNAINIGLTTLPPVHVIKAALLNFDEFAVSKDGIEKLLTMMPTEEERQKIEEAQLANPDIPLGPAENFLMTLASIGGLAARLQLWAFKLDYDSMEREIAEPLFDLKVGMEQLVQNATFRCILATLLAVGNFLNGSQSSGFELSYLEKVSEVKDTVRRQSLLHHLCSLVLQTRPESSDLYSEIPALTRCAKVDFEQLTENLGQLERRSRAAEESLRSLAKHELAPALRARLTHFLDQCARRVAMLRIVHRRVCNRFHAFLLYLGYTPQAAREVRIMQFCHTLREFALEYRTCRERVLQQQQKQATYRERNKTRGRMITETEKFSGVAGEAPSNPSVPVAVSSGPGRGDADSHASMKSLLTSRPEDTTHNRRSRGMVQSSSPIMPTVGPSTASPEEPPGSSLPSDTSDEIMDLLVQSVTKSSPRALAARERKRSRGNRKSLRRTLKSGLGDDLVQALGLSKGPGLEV

B1: profilin IIL fused to yeast GAL4-DNA-binding domain protein (other)
chain: MKLLSSIEQACDICRLKKLKCSKEKPKCAKCLKNNWECRYSPKTKRSPLTRAHLTEVESRLERLEQLFLLIFPREDLDMILKMDSLQDIKALLTGLFVQDNVNKDAVTDRLASVETDMPLTLRQHRISATSSSEESSNKGQRQLTVSMAGWQSYVDNLMCDGCCQEAAIVGYCDAKYVWAATAGGVFQSITPIEIDMIVGKDREGFFTNGLTLGAKKCSVIRDSLYVDGDCTMDIRTKSQGGEPTYNVAVGRAGRVLVFVMGKEGVHGGGLNKKAYSMAKYLRDSGF
notes: Profilin IIL was cloned from human skeletal muscle-derived cDNA; also called PFN IIL
B2: profilin II fused to yeast GAL4-DNA-binding domain protein (other)
chain: MKLLSSIEQACDICRLKKLKCSKEKPKCAKCLKNNWECRYSPKTKRSPLTRAHLTEVESRLERLEQLFLLIFPREDLDMILKMDSLQDIKALLTGLFVQDNVNKDAVTDRLASVETDMPLTLRQHRISATSSSEESSNKGQRQLTVSAGWQSYVDNLMCDGCCQEAAIVGYCDAKYVWAATAGGVFQSITPIEIDMIVGKDREGFFTNGLTLGAKKCSVIRDSLYVDGDCTMDIRTKSQGGEPTYNVAVGRAGRALVIVMGKEGVHGGTLNKKAYELALYLRRSDV
notes: also called PFN II; pG-PFNII

Tests used:
[1] = biological target: T1, MD36NT (MD36 from the N terminus to the …); test: yeast two-hybrid, HIS3 reporter growth
Text: (§1) The protein-protein interaction between MD36 and the profilin family was detected by the yeast two-hybrid system. Based on pGBT9 (CLONTECH), expression plasmids were constructed to express the coding regions of profiling I (Evangelista et al., Science, 276, 118-122, 1997; Imamura et al., EMBO J., 16, 2745-2755, 1997; Tanaka, Biochem. Biophys. Res. Commun., 267, 479-481, 2000), profilin II (Schluter et al., Biohim. Biophys. Acta, 1359, 97-109, 1997), and profiling IIL in the form fused to yeast GAL4-DNA-binding domain protein under control of yeast ADH1 promoter. These plasmids were named pG-PFNI, pG-PFNII and pG-PFNIII, respectively (yeast selection marker was TRP1). On the other hand, expression plasmids that express the full-length sequence (SEQ ID NO:1) of MD36, which is IRAP-BP protein, or the coding region from this N-terminus to the sequence (SEQ ID NO:33) including the proline-rich domain in the form fused to yeast […] activated domain protein under control of yeast ADH1 promoter was constructed based on pACT2 (CLONTECH), and named pACT-MD36 and pACT-MD36NT, respectively (yeast selection marker was LEU2). pG-PFNI, pG-PFNII, pG-PFNIII or, pGBT9 for control was co-transfected to yeast Saccharomyces cerevisiae Y190 together with pACT-MD36 or pACT-MD36NT, and yeast strains bearing plasmids from the two were selected on SD medium free of tryptophan and leucine. […]

[2] = biological target: T2, full-length MD36 (SEQ ID NO:1) fused to …; test: yeast two-hybrid, HIS3 reporter growth
Text: as §1

[3] = biological target: T1, MD36NT (MD36 from the N terminus to the …); test: yeast two-hybrid, HIS3 reporter growth on histidine-free medium
Text: as §1

[4] = biological target: T2, full-length MD36 (SEQ ID NO:1) fused to …; test: as above
Text: as §1

| Binder | binding result [1] | binding result [2] | binding result [3] | binding result [4] |
| --- | --- | --- | --- | --- |
| B1 | binds | binds | – | – |
| B2 | – | – | no binding | no binding |
